Assay results: paper doi:10.1101/2021.03.17.435802 (bioRxiv, 2021)

Biological target: SARS-CoV-2 S1 WT (in-house) (SARS-CoV-2, UniProt P0DTC2)
Experiment: SPR

B1: REGN10987 (antibody, V domains shown)
VH: QVQLVESGGGVVQPGRSLRLSCAASGFTFSNYAMYWVRQAPGKGLEWVAVISYDGSNKYYADSVKGRFTISRDNSKNTLYLQMNSLRTEDTAVYYCASGSDYGDYLLVYWGQGTLVTVSS
VL: QSALTQPASVSGSPGQSITISCTGTSSDVGGYNYVSWYQQHPGKAPKLMIYDVSKRPSGVSNRFSGSKSGNTASLTISGLQSEDEADYYCNSLTSISTWVFGGGTKLTVL
B1: binds.
